Test results: article PMC2661964, “Mammalian Kinesin-3 Motors Are Dimeric In Vivo and Move by Processive Motility upon Release of Autoinhibition” (PLoS Biology, 2009)

Experiments:
mCit-KHC = test: FRET or BRET; FRET stoichiometry (average FRET efficiency, E AVE) in live COS cells coexpressing mCit- and mCFP-tagged motors; Kinesin-1 with HA-KLC coexpressed
KHC(1–891)-3xmCit = test: stepwise photobleaching of single molecules (TIRF microscopy); lysates of COS cells expressing 3xmCit-tagged constructs, in flow chambers with Cy5-microtubules, with AMPPNP; number of bleaching steps of 160–200 spots for each construct
[1] = molecular target: the molecule itself; test: cross-linking; cytosolic extracts of rat brain and detergent extracts of murine cortical neurons, with or without DMP; SDS-PAGE, immunoblot with anti-KIF1A

## mCFP-KHC (natural protein)
mCit-KHC
  average FRET efficiency (E AVE), motor-to-motor: 2.1%

## KHC(1–891)-3xmCit (domain or fragment)
KHC(1–891)-3xmCit
  stoichiometry N: 2

B1: endogenous KIF1A in rat brain cytosol (natural protein, rat (endogenous in rat brain), UniProt F1M4A4 1-1707, looked up)
chain: MAGASVKVAVRVRPFNSREMSRDSKCIIQMSGSTTTIVNPKQPKETPKSFSFDYSYWSHTSPEDINYASQKQVYRDIGEEMLQHAFEGYNVCIFAYGQTGAGKSYTMMGKQEKDQQGIIPQLCEDLFSRINDTTNDNMSYSVEVSYMEIYCERVRDLLNPKNKGNLRVREHPLLGPYVEDLSKLAVTSYNDIQDLMDSGNKARTVAATNMNETSSRSHAVFNIIFTQKRHDAETNITTEKVSKISLVDLAGSERADSTGAKGTRLKEGANINKSLTTLGKVISALAEMDSGPNKNKKKKKTDFIPYRDSVLTWLLRENLGGNSRTAMVAALSPADINYDETLSTLRYADRAKQIRCNAIINEDPNNKLIRELKDEVTRLRDLLYAQGLGDITDTNTVPGGPKLTNALVGMSPSSSLSALSSRAASVSSLHERILFAPGSEEAIERLKETEKIIAELNETWEEKLRRTEAIRMEREALLAEMGVAMREDGGTLGVFSPKKTPHLVNLNEDPLMSECLLYYIKDGVTRVGREDAERRQDIVLSGHFIKEEHCIFRSDSRGGGEAVVTLEPCEGADTYVNGKKVTEPSILRSGNRIIMGKSHVFRFNHPEQARQERERTPCAETPAEPVDWAFAQRELLEKQGIDMKQEMEQRLQELEDQYRREREEATYLLEQQRLDYESKLEALQKQMDSRYYPEVNEEEEEPEDEVQWTERECELALWAFRKWKWYQFTSLRDLLWGNAIFLKEANAISVELKKKVQFQFVLLTDTLYSPLPPDLLPPEAAKDRETRPFPRTIVAVEVQDQKNGATHYWTLEKLRQRLDLMREMYDRAAEVPSSVVEDCDNVVTGGDPFYDRFPWFRLVGRAFVYLSNLLYPVPLVHRVAIVSEKGEVKGFLRVAVQAISADEEAPDYGSGVRQSGTAKISFDDQHFEKFQSESCPVVGMSRSGTSQEELRIVEGQGQGADAGPSADEVNNNTCSAVPPEGLLDSPEKAALDGPLDTALDHLRLGSTFTFRVTVLQASSISAEYADIFCQFNFIHRHDEAFSTEPLKNTGRGPPLGFYHVQNIAVEVTKSFIEYIKSQPIVFEVFGHYQQHPFPPLCKDVLSPLRPSRRHFPRVMPLSKPVPATKLSTMTRPSPGPCHCKYDLLVYFEICELEANGDYIPAVVDHRGGMPCMGTFLLHQGIQRRITVTLLHETGSHIRWKEVRELVVGRIRNTPETDEALIDPNILSLNILSSGYVHPAQDDRQFLDSDIPRTFYQFEAAWDSSMHNSLLLNRVTPYREKIYMTLSAYIEMENCTQPAVITKDFCMVFYSRDAKLPASRSIRNLFGSGSLRATEGNRVTGVYELSLCHVADAGSPGMQRRRRRVLDTSVAYVRGEENLAGWRPRSDSLILDHQWELEKLSLLQEVEKTRHYLLLREKLETTQRPVPEVLSPASSEDSESRSSSGASSPLSAEGQPSPLEVPNERQRELAVKCLRLLMHTFNREYTHSHVCISASESKLSEMSVTLMRDPSMSPLGAATLTPSSTCPSLIEGRYGATDVRTPQPCSRPASPEPELLPELDSKKTPSPVRATETEKEPQRLLVPDIQEIRVSPIVSKKGYLHFLEPHTAGWAKRFVVVRRPYAYMYNSDKDTVERFVLNLSTAQVEYSEDQQAMLKTPNTFAVCTEHRGILLQANSDKDMHDWLYAFNPLLAGTIRSKLSRRRSAQMRV
notes: KIF1A, endogenous protein of rat brain cytosol; source: endogenous, cytosolic extract of rat brain
[1]
  stoichiometry N: 2

B2: endogenous KIF1A in murine cortical neurons (natural protein, UniProt P33173 1-1695, looked up)
chain: MAGASVKVAVRVRPFNSREMSRDSKCIIQMSGSTTTIVNPKQPKETPKSFSFDYSYWSHTSPEDINYASQKQVYRDIGEEMLQHAFEGYNVCIFAYGQTGAGKSYTMMGKQEKDQQGIIPQLCEDLFSRINDTTNDNMSYSVEVSYMEIYCERVRDLLNPKNKGNLRVREHPLLGPYVEDLSKLAVTSYNDIQDLMDSGNKPRTVAATNMNETSSRSHAVFNIIFTQKRHDAETNITTEKVSKISLVDLAGSERADSTGAKGTRLKEGANINKSLTTLGKVISALAEMDSGPNKNKKKKKTDFIPYRDSVLTWLLRENLGGNSRTAMVAALSPADINYDETLSTLRYADRAKQIRCNAIINEDPNNKLIRELKDEVTRLRDLLYAQGLGDITDMTNALVGMSPSSSLSALSSRAASVSSLHERILFAPGSEEAIERLKETEKIIAELNETWEEKLRRTEAIRMEREALLAEMGVAMREDGGTLGVFSPKKTPHLVNLNEDPLMSECLLYYIKDGVTRVGREDAERRQDIVLSGHFIKEEHCIFRSDSRGGGEAVVTLEPCEGADTYVNGKKVTEPSILRSGNRIIMGKSHVFRFNHPEQARQERERTPCAETPAEPVDWAFAQRELLEKQGIDMKQEMEQRLQELEDQYRREREEATYLLEQQRLDYESKLEALQKQMDSRYYPEVNEEEEEPEDEVQWTERECELALWAFRKWKWYQFTSLRDLLWGNAIFLKEANAISVELKKKVQFQFVLLTDTLYSPLPPDLLPPEAAKDRETRPFPRTIVAVEVQDQKNGATHYWTLEKLRQRLDLMREMYDRAAEVPSSVVEDCDNVVTGGDPFYDRFPWFRLVGRAFVYLSNLLYPVPLVHRVAIVSEKGEVKGFLRVAVQAISADEEAPDYGSGVRQSGTAKISFDDQHFEKFQSESCPVVGMSRSGTSQEELRIVEGQGQGADAGPSADEVNNNTCSAVPPEGLMDSPEKAALDGPLDTALDHLRLGSTFTFRVTVLQASSISAEYADIFCQFNFIHRHDEAFSTEPLKNTGRGPPLGFYHVQNIAVEVTKSFIEYIKSQPIVFEVFGHYQQHPFPPLCKDVLSPLRPSRRHFPRVMPLSKPVPATKLSTMTRPSPGPCHCKYDLLVYFEICELEANGDYIPAVVDHRGACMGTFLLHQGIQRRITVTLLHETGSHIRWKEVRELVVGRIRNTPETDEALIDPNILSLNILSSGYVHPAQDDRVFFGNDTRTFYQFEAAWDSSMHNSLLLNRVTPYREKIYMTLSAYIEMENCTQPAVITKDFCMVFYSRDAKLPASRSIRNLFGSGSLRATEGNRVTGVYELSLCHVADAGSPGMQRRRRRVLDTSVAYVRGEENLAGWRPRSDSLILDHQWELEKLSLLQEVEKTRHYLLLREKLETTQRPGPEVLSPASSEDSESRSSSGASSPLSAEGQPSPLEAPNERQRELAVKCLRLLMHTFNREYTHSHVCISASESKLSEMSVTLMRDPSMSPLGAATLTPSSTCPSLIEGRYGATDVRTPQPCSRPASPEPELLPELDSKKTPSPVRATETEKEPQRLLVPDIQEIRVSPIVSKKGYLHFLEPHTAGWAKRFVVVRRPYAYMYNSDKDTVERFVLNLSTAQVEYSEDQQAMLKTPNTFAVCTEHRGILLQANSDKDMHDWLYAFNPLLAGTIRSKLSRRRSAQMRV
notes: KIF1A, endogenous protein of murine cortical neurons; source: endogenous, detergent extract of murine cortical neurons
[1]
  stoichiometry N: 2
